Source: US5821227A, “Modulators of cytokines of the tgf β superfamily” (Mount Sinai Hospital Corporation, priority 1995, dated 1998)
pIC50, pKd: −log10 of the molar value. Like-named read-outs stand apart in the source and are kept apart here.

Assays:
TGF-β1 [1] = molecular target: T1, TGF-β1 (Homo sapiens, UniProt P01137); experiment: BIAcore surface plasmon resonance binding to immobilized TGF-β1; conditions: for binding to immobilized TGF-β1 (in words): BIAcore sensorgram
T1 construct: purchased Collaborative Research (Bedford, Mass.)
Description: (§1) In this system, a purified protein serving as the ligand is covalently coupled to a carboxymethylated dextran surface, and binding molecules (ie. the analyte) are passed in a fluid phase across the surface. Binding of the analyte to ligand causes a change in reflected light which is directly proportional to mass bound, and is measured in arbitrary response units (R.U.). Analyte-ligand binding is observed as both increasing response with time during the injection of analyte, and the difference in the position of the baseline before and after injection.
(§2) Schuster, R. V. Swanson, L. A. Alex, R. B. Bourret, M. I. Simon, Nature 365, 343 (1993). 1000 R.U. equals approximately 1 ng/mm^2. The running buffer was 20 mM Hepes (pH7.2), 150 mM NaCl and the flow rate for all sensorgrams was 3 μl/min. Injection volumes were 36 μl for FIG. 2, 4 and 5 and 45 μl for FIG. 3. […] Protein concentrations in each experiment were (FIGS. 2 and 3), 2, 5, 10, 20, 30, 40 μM; (FIG. 4), 0.21, 0.31, 0.41, 0.62, 0.82, 1.24 μM; (FIG. 5), 0.22, 0.29, 0.44, 0.59, 0.88 μM. R.U. for the immobilized cytokine in each experiment was 2850 R.U. for FIGS. 2 and 3; 7450 R.U. for FIG. 4, and 5300 R.U., for FIG. 5 respectively.
(§3) Data was analyzed using the BIA-evaluation software (Pharmacia Biosensor). The association rate constant, kass, was calculated by first plotting the change in response with time versus response (ie. dR/dT vs R). When the slope of the line from this graph is plotted versus analyte concentration (i.e d(dR/dT)/dR vs C), kass is obtained from the slope of the line. The dissociation rate constant, kdiss, is obtained during the decrease in response with time after analyte injection is discontinued. Specifically, kdiss was obtained from the slope of the line in a plot of ln(Rt1 /Rtn) vs time. The affinity constants were calculated from KD =kdiss /kass. Variance for kass is standard error of the linear regression plot, and for kdiss values are the mean±range of 3 or more independent injections.

BMP-2 = molecular target: T2, BMP-2 (Homo sapiens, UniProt P12643); experiment: BIAcore surface plasmon resonance binding to immobilized BMP-2; conditions: for pKd: ligand BMP-2, KD = kdiss/kass; for kdiss / kass: ligand BMP-2 immobilized; for kass: ± standard error of linear regression
T2 construct: purchased Genetics Institute, Cambridge, Mass; (a gift, not bought)
T2 sequence (P12643 283-396): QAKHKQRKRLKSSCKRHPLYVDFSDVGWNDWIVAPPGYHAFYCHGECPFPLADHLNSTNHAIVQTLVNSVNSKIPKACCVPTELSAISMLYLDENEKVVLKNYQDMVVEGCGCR
Description: as §1, §2, §3

BMP-4 = molecular target: T3, BMP-4 (Homo sapiens, UniProt P12644); experiment: BIAcore surface plasmon resonance binding to immobilized BMP-4; conditions: ligand BMP-4; for pKd: KD = kdiss/kass
T3 sequence (P12644 293-408): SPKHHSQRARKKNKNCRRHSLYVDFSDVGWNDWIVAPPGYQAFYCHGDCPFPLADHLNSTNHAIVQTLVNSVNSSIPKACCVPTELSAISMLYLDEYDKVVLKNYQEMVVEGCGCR
Description: as §1, §2, §3

TGF-β1 [2] = molecular target: T1, TGF-β1; experiment: Mv1Lu growth inhibition assay: neutralization of the antiproliferative activity of TGF-β1 (3H-thymidine incorporation); format: cell-based; conditions: Mv1Lu cells; for pIC50 / Maximal effect, percent neutralization: TGF-β1 12 pM; for pIC50: 3H-thymidine incorporation, read-out: half-maximal inhibition (IC50) of the anti-proliferative activity of TGF-β1; for Maximal effect, percent neutralization: 0% = TGF-β1 alone, 100% = no additions
Description: Mv1Lu cells were seeded at 20,000 cells/well in a 96 well plate containing 0.2% FCS in α-MEM and incubated with the indicated concentrations of proteins for 18 hr. […] Before use, bovine thyroglobulin was spun twice in a centricon (M.W. cutoff of 10,000 Da) micro-concentrator (Amicon, Beverly, Mass.) to remove any excess Iodine and T3/T4 thyroid hormones.

TGF-β2 = molecular target: T4, TGF-β2 (Homo sapiens, UniProt P61812); experiment: BIAcore surface plasmon resonance binding to TGF-β2; conditions: ligand TGF-β2; for pKd: KD = kdiss/kass; for kass: ± standard error of linear regression
T4 sequence (P61812 303-414 limits assumed): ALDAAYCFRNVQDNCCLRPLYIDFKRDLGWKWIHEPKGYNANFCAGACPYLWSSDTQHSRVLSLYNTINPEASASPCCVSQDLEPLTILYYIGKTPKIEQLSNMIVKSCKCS
Description: as §1, §2, §3

BMP-6 = molecular target: T5, BMP-6 (Homo sapiens, UniProt P22004); experiment: BIAcore surface plasmon resonance binding to immobilized BMP-6; conditions: ligand BMP-6
T5 sequence (P22004 375-513): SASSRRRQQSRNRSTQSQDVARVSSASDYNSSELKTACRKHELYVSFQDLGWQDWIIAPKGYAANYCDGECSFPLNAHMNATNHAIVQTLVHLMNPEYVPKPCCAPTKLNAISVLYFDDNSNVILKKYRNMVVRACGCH
Description: as §1, §2, §3

[3] = ligand TGF-β1, KD = kdiss/kass, read-out: KD
[4] = ligand TGF-β1 immobilized, ± standard error of linear regression
[5] = ± standard error of linear regression

T1 sequence (P01137 279-390 limits assumed): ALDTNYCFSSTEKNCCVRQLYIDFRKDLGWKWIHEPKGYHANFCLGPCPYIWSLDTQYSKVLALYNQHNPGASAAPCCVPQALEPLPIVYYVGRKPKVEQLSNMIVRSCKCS

| Compound | pKd (TGF-β1 [1]; [3]) | binding to immobilized TGF-β1 (in words) (TGF-β1 [1]) | kdiss (dissociation rate) (TGF-β1 [1]; ligand TGF-β1 immobilized) [s⁻¹] | kass (association rate) (TGF-β1 [1]; [4]) [M⁻¹ s⁻¹] | kdiss (BMP-4) [s⁻¹] | pKd (BMP-4) | pKd (BMP-2) | kdiss (BMP-2) [s⁻¹] | kass (BMP-2) [M⁻¹ s⁻¹] | pIC50 (TGF-β1 [2]) | Maximal effect, percent neutralization (TGF-β1 [2]) | kdiss (TGF-β2) [s⁻¹] | pKd (TGF-β2) | kass (TGF-β2) [M⁻¹ s⁻¹] | further results |
| --- | --- | --- | --- | --- | --- | --- | --- | --- | --- | --- | --- | --- | --- | --- | --- |
| CC[C@H](C)[C@@H]1NC(=O)[C@H](CC(N)=O)NC(=O)[C@H](CCC(=O)O)NC(=O)[C@H](CC(=O)O)NC(=O)[C@H](CC(N)=O)NC(=O)[C@H](CCCCN)NC(=O)[C@H](CCCNC(=N)N)NC(=O)[C@H](Cc2c[nH]c3ccccc23)NC(=O)[C@H](C(C)C)NC(=O)[C@H](C)NC(=O)[C@H](C(C)C)NC(=O)[C@@H](N)CSSC[C@@H](C(=O)N[C@@H](Cc2c[nH]cn2)C(=O)N[C@@H](CC(=O)O)C(=O)O)NC(=O)[C@H](C(C)C)NC(=O)[C@H]([C@@H](C)O)NC(=O)[C@H](CCC(=O)O)NC(=O)[C@H](CC(C)C)NC(=O)[C@H]([C@@H](C)O)NC1=O [TRH1b (TβRII)] | – | – | – | – | – | – | – | – | – | – | – | – | – | – | koff (TGF-β1 [1]; ligand TGF-β1 immobilized, read-out: kdiss (dissociation rate)): 0.0019 s⁻¹; kon (TGF-β1 [1]; ligand TGF-β1 immobilized, ± standard error of linear regression, read-out: kass (association rate)): 3700 M⁻¹ s⁻¹ |
| CC[C@H](C)[C@H](NC(=O)[C@H](CC(N)=O)NC(=O)[C@H](CCC(=O)O)NC(=O)[C@H](CC(=O)O)NC(=O)[C@H](CC(N)=O)NC(=O)[C@H](CCCCN)NC(=O)[C@H](CCCNC(=N)N)NC(=O)[C@H](Cc1c[nH]c2ccccc12)NC(=O)[C@@H](NC(=O)[C@H](C)NC(=O)[C@@H](NC(=O)[C@@H](N)CSCC(N)=O)C(C)C)C(C)C)C(=O)N[C@H](C(=O)N[C@@H](CC(C)C)C(=O)N[C@@H](CCC(=O)O)C(=O)N[C@H](C(=O)N[C@H](C(=O)N[C@@H](CSCC(N)=O)C(=O)N[C@@H](Cc1c[nH]cn1)C(=O)N[C@@H](CC(=O)O)C(=O)O)C(C)C)[C@@H](C)O)[C@@H](C)O [TRH1b (TβRII) (reduced & alkylated)] | < 5.00 | – | – | – | – | – | – | – | – | – | – | – | – | – | – |
| reduced and alkylated fetuin: Fetuin, reduced and alkylated, compared to native fetuin | – | diminished binding | – | – | – | – | – | – | – | – | – | – | – | – | binding to immobilized BMP-2 (in words) (BMP-2; BIAcore sensorgram): diminished binding |
| Fetuin: Bovine fetuin, glycoprotein from fetal calf serum (ammonium sulfate fractionation, gel filtration), purchased from Sigma | – | – | 0.0016 | 670 ± 400 | 0.00058 | 6.85 | 7.44 | 6.2e-05 | 1700 ± 300 | 5.38 | approximately 150% | 0.0032 | 5.24 | 550 ± 120 | pKd (TGF-β1 [1]; ligand TGF-β1, steady-state, read-out: KD, Scatchard type analysis for steady-state binding): 5.34; kdiss (BMP-2; listed as fetuin): 6.2e-05 s⁻¹; kass (BMP-2; listed as fetuin): 1700 M⁻¹ s⁻¹; kdiss (BMP-6): 0.0025 s⁻¹; pKd (BMP-6; KD = kdiss/kass): 6.07; kass (BMP-6; [5]): 2900 ± 500 M⁻¹ s⁻¹ |
| human transferrin: Non-binding control passed over immobilized TGF-β1 [reference compound] | – | non-binding | – | – | – | – | – | – | – | – | – | – | – | – | – |
| Thyroglobulin: Bovine thyroglobulin purchased from Sigma, containing the TRH1 domain | 6.17 | – | 0.0019 | 2800 ± 1000 | 0.0011 | 7.70 | 8.51 | 0.0001 | 32000 ± 2000 | 6.66 | approximately 150% | 0.005 | 5.42 | 1300 ± 600 | kass (BMP-4; [5]): 54000 ± 7000 M⁻¹ s⁻¹; IC50 for inhibition of TGF-β1 activity, fold lower than for fetuin (TGF-β1 [2]): 20 fold |
